Test results: US20140179604A1 (U S A REPRESENTED BY THE DEPARTMENT OF VETERANS AFFAIRS, published 2014)
Where two headings read alike, the source gives them in different places. Blank lines part the entries; values can stand above or below the molecule they belong to. Non-standard residues stand in square brackets, D forms with d. No end group written: not given here. *: point of attachment. Phe(F5) = N[C@@H](Cc1c(F)c(F)c(F)c(F)c1F)C(=O)O; Desaminotyrosyl = O=C(CCc1ccc(O)cc1)*; NMeY = CN[C@@H](Cc1ccc(O)cc1)C(=O)O; Agmatine = N=C(N)NCCCCN*; Nle = CCCC[C@H](N)C(=O)O; Orn = NCCC[C@H](N)C(=O)O; Abu = CC[C@H](N)C(=O)O; GABA = NCCCC(=O)O

How the values were obtained:
[1] = target: T1, GHRH receptor (membrane receptors of human anterior pituitary cells) (human) (UniProt Q02643); assay: competition with [His1,125I-Tyr10,Nle27]hGHRH(1-32)NH2, human pituitary membranes
T1 sequence (looked up): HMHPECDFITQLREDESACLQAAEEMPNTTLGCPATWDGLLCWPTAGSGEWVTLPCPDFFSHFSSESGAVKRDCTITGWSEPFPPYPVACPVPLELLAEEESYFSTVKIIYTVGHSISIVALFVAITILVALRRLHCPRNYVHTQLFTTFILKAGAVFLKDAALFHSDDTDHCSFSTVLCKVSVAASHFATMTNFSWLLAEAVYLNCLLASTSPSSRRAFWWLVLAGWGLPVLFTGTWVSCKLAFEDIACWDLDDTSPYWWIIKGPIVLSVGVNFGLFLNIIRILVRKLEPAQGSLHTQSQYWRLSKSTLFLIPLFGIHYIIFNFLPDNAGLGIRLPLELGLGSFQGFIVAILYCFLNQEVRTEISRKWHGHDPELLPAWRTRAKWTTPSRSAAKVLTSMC

[2] = target: T2, GHRH receptor (membrane receptors of human anterior pituitary cells) (human, UniProt Q02643 23-423); assay: competition with 125I-JV-1-42, human pituitary membranes
T2 construct: whole, on cells; Native receptor in a membrane fraction of purchased normal human pituitaries, not intact cells; also called hGHRH receptor; human pituitary membrane homogenates
T2 sequence (looked up): T1 sequence (looked up)
Description: (§1) Normal human pituitaries were purchased from the National Hormone and Peptide Program (A. F. Parlow, Los Angeles, County Harbor-UCLA Medical Center, Torrance, Calif.).

[3] = target: T2, GHRH receptor (membrane receptors of …); assay: as above; remark: listed apart in the source
Procedure: as §1
The final binding affinities were expressed as IC₅₀ values and were calculated by using the LIGAND PC computerized curve-fitting program of Munson and Rodbard as modified by McPherson.

[4] = target: T1, GHRH receptor (membrane receptors of human anterior pituitary cells) (human); assay: as above
[5] = target: T1, GHRH receptor (membrane receptors of human anterior pituitary cells) (human); assay: as above; remark: listed apart in the source
[6] = target: T1, GHRH receptor (membrane receptors of human anterior pituitary cells) (human); assay: competition with 125I-[His1,Nle27]hGHRH(1-32)NH2, human pituitary membranes
[7] = target: T2, GHRH receptor (membrane receptors of …); assay: as above
[8] = target: T2, GHRH receptor (membrane receptors of …); assay: competition with [His1,125I-Tyr10,Nle27]hGHRH(1-32)NH2, human pituitary membranes
Description: Normal human pituitaries were purchased from the National Hormone and Peptide Program (A. F. Parlow, Los Angeles, County Harbor—UCLA Medical Center, Torrance, Calif.).

- IC50 [1]: 1.37 nM
- Relative affinity (Binding potency) vs GHRH (GHRH(1-29) = 1) [1]: 4.32
Molecule: JI-34 (peptide)

- IC50 [1]: 1.82 nM
- Relative affinity (Binding potency) vs GHRH (GHRH(1-29) = 1) [1]: 3.25
Molecule: JI-36 (peptide)

- IC50 [2]: 0.52 nM
- Relative affinity (Binding potency) vs JI-38 [2]: 8.37 JI-38 = 1
- IC50 [3]: 0.04 nM
- Relative affinity (Binding potency) vs GHRH [3]: 102 GHRH(1-29) = 1
- Relative affinity (Binding potency) vs JI-38 [3]: 42.7 JI-38 = 1
B1: P-20350 [Dat^1, D-Ala^2, Gln^8, Orn^12, Abu^15, Orn^21, Nle^27, Asp^28, Agm^29]hGHRH(1-29)NH2 (peptide)
peptide: [Desaminotyrosyl][dA]DAIFTQSYR[Orn]VL[Abu]QLSAR[Orn]LLQDI[Nle]D[Agmatine]
SMILES: CCCC[C@H](NC(=O)[C@@H](NC(=O)[C@H](CC(=O)O)NC(=O)[C@H](CCC(N)=O)NC(=O)[C@H](CC(C)C)NC(=O)[C@H](CC(C)C)NC(=O)[C@H](CCCN)NC(=O)[C@H](CCCNC(=N)N)NC(=O)[C@H](C)NC(=O)[C@H](CO)NC(=O)[C@H](CC(C)C)NC(=O)[C@H](CCC(N)=O)NC(=O)[C@H](CC)NC(=O)[C@H](CC(C)C)NC(=O)[C@@H](NC(=O)[C@H](CCCN)NC(=O)[C@H](CCCNC(=N)N)NC(=O)[C@H](Cc1ccc(O)cc1)NC(=O)[C@H](CO)NC(=O)[C@H](CCC(N)=O)NC(=O)[C@@H](NC(=O)[C@H](Cc1ccccc1)NC(=O)[C@@H](NC(=O)[C@H](C)NC(=O)[C@H](CC(=O)O)NC(=O)[C@@H](C)NC(=O)CCc1ccc(O)cc1)[C@@H](C)CC)[C@@H](C)O)C(C)C)[C@@H](C)CC)C(=O)N[C@@H](CC(=O)O)C(=O)NCCCCNC(=N)N
notes: also called Peptide 20350; MR-350

- IC50 [4]: 0.01 nM
- Relative affinity (Binding potency) vs GHRH (GHRH(1-29) = 1) [4]: 406
- Relative affinity (Binding potency) vs JI-38 [4]: 171 JI-38 = 1
- IC50 [5]: 0.27 nM
- Relative affinity (Binding potency) vs JI-38 [5]: 16.1 JI-38 = 1
- IC50 [6]: 1.02 nM
- Relative affinity (Binding potency) compared to JI-38 [6]: 2.69 JI-38 = 1
- Relative affinity (Binding potency) compared to hGHRH(1-29) (hGHRH(1-29)NH2 = 1) [6]: 7.5
Molecule: [NMeY]ADAIFTQSYR[Orn]VL[Abu]QLSAR[Orn]LLQDI[Nle]D[Agmatine] (peptide, from a related filing, not fully specified (C-terminus)) [P-20356 [N-Me-Tyr^1, Gln^8, Orn^12, Abu^15, Orn^21, Nle^27, Asp^28, Agm^29]hGHRH(1-29)NH2]

- IC50 [7]: 2.74 nM
- Relative affinity (Binding potency) compared to JI-38 [7]: 1 JI-38 = 1
- Relative affinity (Binding potency) compared to hGHRH(1-29) [7]: 2.79 hGHRH(1-29)NH2 = 1
- IC50 [2]: 4.35 nM
- Relative affinity (Binding potency) vs JI-38 [2]: 1 JI-38 = 1
- IC50 [3]: 1.71 nM
- Relative affinity (Binding potency) vs GHRH [3]: 2.4 GHRH(1-29) = 1
- Relative affinity (Binding potency) vs JI-38 [3]: 1 JI-38 = 1
- IC50 [8]: 1.95 nM
- Relative affinity (Binding potency) vs GHRH [8]: 3.03 GHRH(1-29) = 1
- Relative affinity (Binding potency) vs JI-38 [8]: 1 JI-38 = 1
B2: JI-38 [Dat^1, Gln^8, Orn^12,21, Abu^15, Nle^27, Asp^28, Agm^29]hGHRH(1-29)NH2 (peptide)
peptide: [Desaminotyrosyl]ADAIFTQSYR[Orn]VL[Abu]QLSAR[Orn]LLQDI[Nle]D[Agmatine]
SMILES: CCCC[C@H](NC(=O)[C@@H](NC(=O)[C@H](CC(=O)O)NC(=O)[C@H](CCC(N)=O)NC(=O)[C@H](CC(C)C)NC(=O)[C@H](CC(C)C)NC(=O)[C@H](CCCN)NC(=O)[C@H](CCCNC(=N)N)NC(=O)[C@H](C)NC(=O)[C@H](CO)NC(=O)[C@H](CC(C)C)NC(=O)[C@H](CCC(N)=O)NC(=O)[C@H](CC)NC(=O)[C@H](CC(C)C)NC(=O)[C@@H](NC(=O)[C@H](CCCN)NC(=O)[C@H](CCCNC(=N)N)NC(=O)[C@H](Cc1ccc(O)cc1)NC(=O)[C@H](CO)NC(=O)[C@H](CCC(N)=O)NC(=O)[C@@H](NC(=O)[C@H](Cc1ccccc1)NC(=O)[C@@H](NC(=O)[C@H](C)NC(=O)[C@H](CC(=O)O)NC(=O)[C@H](C)NC(=O)CCc1ccc(O)cc1)[C@@H](C)CC)[C@@H](C)O)C(C)C)[C@@H](C)CC)C(=O)N[C@@H](CC(=O)O)C(=O)NCCCCNC(=N)N
notes: Non-coded residues replacing another residue are written X

- IC50 [7]: 3.3 nM
- Relative affinity (Binding potency) compared to JI-38 [7]: 0.83 JI-38 = 1
- Relative affinity (Binding potency) compared to hGHRH(1-29) [7]: 2.31 hGHRH(1-29)NH2 = 1
- IC50 [2]: 0.86 nM
- Relative affinity (Binding potency) vs JI-38 [2]: 5.06 JI-38 = 1
- IC50 [3]: 0.05 nM
- Relative affinity (Binding potency) vs GHRH [3]: 81.2 GHRH(1-29) = 1
- Relative affinity (Binding potency) vs JI-38 [3]: 34.2 JI-38 = 1
B3: P-29702 [Dat^1, D-Ala^2, Orn^12, Abu^15, Orn^21, Nle^27, Gln-Gab^30]hGHRH(1-30)NH2 (peptide)
peptide: [Desaminotyrosyl][dA]DAIFTNSYR[Orn]VL[Abu]QLSAR[Orn]LLQDI[Nle]SRQ[GABA]-NH2
SMILES: CCCC[C@H](NC(=O)[C@@H](NC(=O)[C@H](CC(=O)O)NC(=O)[C@H](CCC(N)=O)NC(=O)[C@H](CC(C)C)NC(=O)[C@H](CC(C)C)NC(=O)[C@H](CCCN)NC(=O)[C@H](CCCNC(=N)N)NC(=O)[C@H](C)NC(=O)[C@H](CO)NC(=O)[C@H](CC(C)C)NC(=O)[C@H](CCC(N)=O)NC(=O)[C@H](CC)NC(=O)[C@H](CC(C)C)NC(=O)[C@@H](NC(=O)[C@H](CCCN)NC(=O)[C@H](CCCNC(=N)N)NC(=O)[C@H](Cc1ccc(O)cc1)NC(=O)[C@H](CO)NC(=O)[C@H](CC(N)=O)NC(=O)[C@@H](NC(=O)[C@H](Cc1ccccc1)NC(=O)[C@@H](NC(=O)[C@H](C)NC(=O)[C@H](CC(=O)O)NC(=O)[C@@H](C)NC(=O)CCc1ccc(O)cc1)[C@@H](C)CC)[C@@H](C)O)C(C)C)[C@@H](C)CC)C(=O)N[C@@H](CO)C(=O)N[C@@H](CCCNC(=N)N)C(=O)N[C@@H](CCC(N)=O)C(=O)NCCCC(N)=O
notes: also called MR-702; Peptide 29702

- IC50 [7]: 2.16 nM
- Relative affinity (Binding potency) compared to JI-38 [7]: 1.27 JI-38 = 1
- Relative affinity (Binding potency) compared to hGHRH(1-29) [7]: 3.54 hGHRH(1-29)NH2 = 1
- IC50 [2]: 0.33 nM
- Relative affinity (Binding potency) vs JI-38 [2]: 13.2 JI-38 = 1
- IC50 [3]: 0.07 nM
- Relative affinity (Binding potency) vs GHRH [3]: 58 GHRH(1-29) = 1
- Relative affinity (Binding potency) vs JI-38 [3]: 24.4 JI-38 = 1
B4: P-25502 [Dat^1, D-Ala^2, Fpa5^6, Orn^12, Abu^15, Orn^21, Nle^27, Gab^30]hGHRH(1-30)NH2 (peptide)
peptide: [Desaminotyrosyl][dA]DAI[Phe(F5)]TNSYR[Orn]VL[Abu]QLSAR[Orn]LLQDI[Nle]SR[GABA]-NH2
SMILES: CCCC[C@H](NC(=O)[C@@H](NC(=O)[C@H](CC(=O)O)NC(=O)[C@H](CCC(N)=O)NC(=O)[C@H](CC(C)C)NC(=O)[C@H](CC(C)C)NC(=O)[C@H](CCCN)NC(=O)[C@H](CCCNC(=N)N)NC(=O)[C@H](C)NC(=O)[C@H](CO)NC(=O)[C@H](CC(C)C)NC(=O)[C@H](CCC(N)=O)NC(=O)[C@H](CC)NC(=O)[C@H](CC(C)C)NC(=O)[C@@H](NC(=O)[C@H](CCCN)NC(=O)[C@H](CCCNC(=N)N)NC(=O)[C@H](Cc1ccc(O)cc1)NC(=O)[C@H](CO)NC(=O)[C@H](CC(N)=O)NC(=O)[C@@H](NC(=O)[C@H](Cc1c(F)c(F)c(F)c(F)c1F)NC(=O)[C@@H](NC(=O)[C@H](C)NC(=O)[C@H](CC(=O)O)NC(=O)[C@@H](C)NC(=O)CCc1ccc(O)cc1)[C@@H](C)CC)[C@@H](C)O)C(C)C)[C@@H](C)CC)C(=O)N[C@@H](CO)C(=O)N[C@@H](CCCNC(=N)N)C(=O)NCCCC(N)=O
notes: also called MR-502; Peptide 25502
